“And” between values parts separate entries of the source, which are not always exact repeats. Equal entries are not always repeated.
Key:
[1] = molecular target: cynomolgus monkey CCR8 (comprising threonine at position four) (cynomolgus monkey); assay: KinExA, 293T cells expressing cynomolgus CCR8
[2] = molecular target: cynomolgus monkey CCR8 (comprising threonine at position four) (cynomolgus monkey); assay: flow cytometry, primary cynomolgus Tregs (PBMC, CD4+CD25+CD127- gate)

Sequence of cynomolgus monkey CCR8 (comprising threonine at position four) (cynomolgus monkey) (O97665 other isoform, or with tags, fused parts or gaps): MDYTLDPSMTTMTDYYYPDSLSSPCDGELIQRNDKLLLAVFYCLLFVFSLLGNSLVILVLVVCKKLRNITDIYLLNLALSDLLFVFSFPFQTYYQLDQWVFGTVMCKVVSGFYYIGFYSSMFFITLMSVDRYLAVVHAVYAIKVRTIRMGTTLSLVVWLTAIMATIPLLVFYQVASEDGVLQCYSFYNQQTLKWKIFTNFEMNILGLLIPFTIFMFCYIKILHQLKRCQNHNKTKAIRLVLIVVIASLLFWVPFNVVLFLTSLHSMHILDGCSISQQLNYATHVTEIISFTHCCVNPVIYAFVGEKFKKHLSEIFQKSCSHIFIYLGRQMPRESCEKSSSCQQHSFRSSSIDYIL

B1: Antibody 2 IgG2 (antibody, V domains shown)
VH: QVQLVESGGGVVQPGRSLRLSCAASGFTFSNYGMHWVRQAPGKGLEWVAVISYDGSNKFYADSVKGRFTISRDNSKKTLYLQMSSLRVEDTAVYYCARAGGIGRFDYWGQGTLVTVSS
VL: DFVMTQTPLSLSVTPGQPASISCKYSQSLLHSDGKTYLFWYLQKPGQPPHLLIYEVSNRFSGVPDRFSGSGSGTDFTLKISRVEAEDVGLYYCMQTLKLPLTFGGGTKVEINR
[1]
  Kd: > 50 nM
[2]
  CCR8+CD127-CD25+CD4, % positive: 8.5% and 17.9%

— US20250171549A1
